As a reminder, the Kd is a measure of binding affinity in units of concentration. Low values mean a tighter complex, high ones a looser complex. For orientation: koff means the rate constant with which the complex falls apart. Low readings indicate a long-lived complex, high ones a short-lived complex. For orientation: kon means the rate constant with which the complex forms.

The values below come from US20110262445A1 (CEPHALON AUSTRALIA, published 2011).

Like-named read-outs stand apart in the source and are kept apart here.

For assay [1], the target named is T1, human IL-23 (human, UniProt P29460 23-328; Q9NPF7 20-189).
T1 construct: Recombinant (Ebioscience); HIS-tagged in flow cytometry, biotinylated in some assays; also called hIL-23; rhIL-23
T1 sequence 1: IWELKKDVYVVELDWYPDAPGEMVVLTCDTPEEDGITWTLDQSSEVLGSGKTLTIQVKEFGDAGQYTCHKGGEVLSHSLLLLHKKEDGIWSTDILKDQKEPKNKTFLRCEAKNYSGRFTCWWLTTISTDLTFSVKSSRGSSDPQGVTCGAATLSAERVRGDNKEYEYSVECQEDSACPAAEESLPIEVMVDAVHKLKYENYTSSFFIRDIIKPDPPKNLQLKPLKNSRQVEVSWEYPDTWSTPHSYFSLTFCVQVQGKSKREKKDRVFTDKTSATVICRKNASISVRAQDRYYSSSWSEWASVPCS
T1 sequence 2: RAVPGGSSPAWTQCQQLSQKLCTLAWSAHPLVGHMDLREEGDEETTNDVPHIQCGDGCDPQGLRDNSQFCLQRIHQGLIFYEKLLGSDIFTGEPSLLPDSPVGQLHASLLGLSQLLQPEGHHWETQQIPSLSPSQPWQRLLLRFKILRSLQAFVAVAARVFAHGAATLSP
Kind of assay: ELISA, coated IL-23. The method in brief: (§1)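 Each value is an absorbance measuring binding. Plates (Maxisorp) carried cytokine coated at 1 μg/mL in carbonate buffer pH 9.6 overnight at 4° C, were blocked with 1% BSA in PBS for 1 hour at 25° C, and received antibody titrations for 1 hour at 25° C. Detection used goat anti-human IgG or anti-murine immunoglobulin HRP at 1:2000 for 1 hour, then TMB stopped with 1M HCl, with absorbance taken at 450 nm (reference 620 nm).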
A general note: ELISA stands for enzyme-linked immunosorbent assay.

Assay [2] concerns the target T2, human IL-12 (human, UniProt P29460 23-328; P29459 23-219).
T2 construct: Recombinant (Peprotech); FLAG-tagged IL-12 in the flow cytometry assays, biotinylated in the IL-12Rβ2 assay; also called hIL-12
T2 sequence 1: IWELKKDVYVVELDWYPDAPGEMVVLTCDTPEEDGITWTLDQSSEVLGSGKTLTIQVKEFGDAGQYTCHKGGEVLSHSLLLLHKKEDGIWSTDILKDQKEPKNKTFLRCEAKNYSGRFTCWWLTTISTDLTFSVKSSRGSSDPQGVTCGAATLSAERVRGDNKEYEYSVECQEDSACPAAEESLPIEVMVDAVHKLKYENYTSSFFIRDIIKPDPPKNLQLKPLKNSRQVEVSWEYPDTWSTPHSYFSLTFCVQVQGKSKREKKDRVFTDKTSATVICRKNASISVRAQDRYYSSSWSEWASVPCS
T2 sequence 2: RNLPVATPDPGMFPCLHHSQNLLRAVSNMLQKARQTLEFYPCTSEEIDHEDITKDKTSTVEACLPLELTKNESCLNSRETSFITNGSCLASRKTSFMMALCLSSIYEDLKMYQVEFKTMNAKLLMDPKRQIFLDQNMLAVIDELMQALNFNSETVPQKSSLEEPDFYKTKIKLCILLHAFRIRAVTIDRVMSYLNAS
Kind of assay: ELISA, coated IL-12. The method in brief:
as §1

In assay [3] the target is T1, human IL-23. Kind of assay: ELISA, coated IL-23. The procedure, abridged: as §1
This is another data set of the same source.

The target of assay [4] is T2, human IL-12. Briefly: ELISA, coated IL-12. The method in brief:
as §1
This is another data set of the same source.

The target of assay [5] is T1, human IL-23. Briefly: SPR, IgG. On the procedure:
(§2) CU-A6 was converted to Antibody 183, CP-A6 was converted to Antibody 184 and AW-F2 was converted to Antibody 207 by addition of a human heavy chain Fc region (SEQ ID NO: 8) and a constant kappa light chain region (SEQ ID NO: 9). IgG molecules were expressed by co-transfecting the heavy and light chain construct for each antibody into HEK 293E cultures. The expressed IgGs were purified by affinity chromatography and gel exclusion and the resulting monomeric molecules were tested for IL-12 and IL-23 binding by SPR (TABLE 6). All three IgG variants retained binding activity against both analytes with a visible improvement in kd compared to the parental wild-type IgG. Based on this, it is reasonable to expect that scFv variants described in TABLE 4 could be converted to the IgG format and retain improved binding characteristics against IL-12 and IL-23.
(§3) Using a SPR 3000, Protein A was immobilized onto FC1 and FC2 (or alternatively FC3 and FC4) of a CM5 research grade sensor chip using amine coupling, giving approximately […] RU. FC1 was used a blank throughout the experiments. The experiments were run in HBS-P buffer (SPR). At a flow rate of 20 μl/min, 20 μl of 5 μg/mL of antibody was passed over FC2. IL-12, IL-23 or IL-12p40 (Peprotech) were passed over the surface of FC1 and FC2 at concentrations ranging from 66 nM to 2 nM. Regeneration of the surface was performed using 10 mM Glycine, pH 1.0. The sensorgram data from FC2 was subtracted from FC1 and a buffer only control. The curves were fitted using a 1:1 Langmuir equation to generate the kd, ka and KD values. All curves were fitted with a χ² of less then 2.0 where possible.

Assay [6] addresses T2, human IL-12. Briefly: SPR, IgG. On the procedure: as §2, §3
(In general: SPR reads the build-up and loss of mass on a sensor chip optically.)

B1: Antibody 76 (antibody, human IgG1, kappa, V domains shown)
VH: EVQLVQSGAEVKKPGATVKISCKVSGYTFTDYYLHWVQQAPGKGLEWMGWIDPENGDTEYAPKFQGRVTITADTSTDTAYMELSSLRSEDTAVYYCNANKELRYFDVWGQGTMVTVSS
VL: EIVLTQSPATLSLSPGERATLSCRASQSISINLHWYQQKPGQAPRLLIYFASQSISGIPARFSGSGSGTDFTLTISSLEPEDFAVYYCQQSNSFPLTFGGGTKVEIKR
Turning to B1, the binding result with human IL-23 [1] and with human IL-12 [2] was “binds” throughout.

B2: Antibody 78 (antibody, human IgG1, kappa, V domains shown)
VH: QVQLVQSGAEVKKPGASVKVSCKVSGYTLTDYYLHWVRQAPGKGLEWMGWIDPENGDTEYAPKFQGRVTMTEDTSTDTAYMELSSLRSEDTAVYYCATNKELRYFDVWGQGTMVTVSS
VL: EIVLTQSPATLSLSPGERATLSCRASQSISINLHWYQQKPGQAPRLLIYFASQSISGIPARFSGSGSGTDFTLTISSLEPEDFAVYYCQQSNSFPLTFGGGTKVEIKR
Turning to B2, the binding result in the assay with human IL-23 [1] and with human IL-12 [2] was “binds” each time.

B3: Antibody 37 (antibody, human IgG1, kappa, V domains shown)
VH: EVQLVQSGAEVKKPGATVKISCKVSGYTFTDYYMHWVQQAPGKGLEWMGWIDPENGDTEYAPKFQGRVTITADTSTDTAYMELSSLRSEDTAVYYCNACKELRYFDVWGQGTMVTVSS
VL: EIVLTQSPATLSLSPGERATLSCRASQSISINLHWYQQKPGQAPRLLIYFASQSISGIPARFSGSGSGTDFTLTISSLEPEDFAVYYCQQSNSWPLTFGGGTKVEIKR
notes: Superhumanized, backmutated heavy chain
With B3, the binding result with human IL-23 [3] and with human IL-12 [4] was “binds” throughout.

B4: Antibody 34 (antibody, human IgG1, kappa, V domains shown)
VH: EVQLVQSGAEVKKPGATVKISCKVSGYTFTDYYMHWVQQAPGKGLEWMGWIDPENGDTEYAPKFQGRVTITADTSTDTAYMELSSLRSEDTAVYYCNACKELRYFDVWGQGTMVTVSS
VL: EIVMTQSPATLSVSPGERATLSCRASQSISINLHWYQQKPGQAPRLLIYFASQSISGIPARFSGSGSGTEFTLTISSLQSEDFAVYYCQQSNSWPLTFGGGTKVEIKR
B4: the binding result with human IL-23 [3] and with human IL-12 [4] was “binds” each time.

B5: Antibody 40 (antibody, human IgG1, kappa, V domains shown)
VH: EVQLVQSGAEVKKPGATVKISCKVSGYTFTDYYMHWVQQAPGKGLEWMGWIDPENGDTEYAPKFQGRVTITADTSTDTAYMELSSLRSEDTAVYYCATCKELRYFDVWGQGTMVTVSS
VL: EIVLTQSPDFQSVTPKEKVTITCRASQSISINLHWYQQKPDQSPKLLIKFASQSISGVPSRFSGSGSGTDFTLTINSLEAEDAATYYCQQSNSWPLTFGGGTKVEIKR
notes: Superhumanized PMA204
Consider B5, for which the binding result with human IL-23 [3] and with human IL-12 [4] was “binds” throughout.

B6: Antibody 207 (antibody, human IgG1, kappa, V domains shown)
VH: QVQLVQSGAEVKKPGASVKVSCKASGYTFTDYYLHWVRQAPGQGLEWMGWIDPENGDTESAPKFQGRVTMTTDTSTSTAYMELRSLRSDDTAVYYCNANKELRYFDVWGQGTMVTVSS
VL: EIVMTQSPATLSVSPGERATLSCRASQSISINLHWYQQKPGQAPRLLIYFASQSISGIPARFSGSGSGTEFTLTISSLQSEDFAVYYCQQSNSFPLTFGGGTKVEIKR
notes: also called AW-F2 as IgG
With B6, in the assay with human IL-23 [5], the affinity, expressed as Kd, was 0.176 nM; the koff was 6.5e-05 s⁻¹; the kon came to 370000 M⁻¹ s⁻¹. In the assay with human IL-12 [6], this molecule displayed a Kd of 0.167 nM, an off-rate (koff) of 0.00063 s⁻¹ and a kon of 3.7e+06 M⁻¹ s⁻¹.

B7: Antibody 77 (antibody, human IgG1, kappa, V domains shown)
VH: QVQLVQSGAEVKKPGASVKVSCKASGYTFTDYYLHWVRQAPGQGLEWMGWIDPENGDTEYAPKFQGRVTMTTDTSTSTAYMELRSLRSDDTAVYYCNANKELRYFDVWGQGTMVTVSS
VL: EIVLTQSPATLSLSPGERATLSCRASQSISINLHWYQQKPGQAPRLLIYFASQSISGIPARFSGSGSGTDFTLTISSLEPEDFAVYYCQQSNSFPLTFGGGTKVEIKR
With B7, the binding result in the assay with human IL-23 [1] and with human IL-12 [2] was “binds” throughout.

B8: Antibody 36 (antibody, human IgG1, kappa, V domains shown)
VH: QVQLVQSGAEVKKPGASVKVSCKASGYTFTDYYMHWVRQAPGQGLEWMGWIDPENGDTEYAPKFQGRVTMTTDTSTSTAYMELRSLRSDDTAVYYCNACKELRYFDVWGQGTMVTVSS
VL: EIVMTQSPATLSVSPGERATLSCRASQSISINLHWYQQKPGQAPRLLIYFASQSISGIPARFSGSGSGTEFTLTISSLQSEDFAVYYCQQSNSWPLTFGGGTKVEIKR
On to B8, for which the binding result with human IL-23 [3] and with human IL-12 [4] was “binds” in each case.

B9: Antibody 79 (antibody, human IgG1, kappa, V domains shown)
VH: EVQLVQSGAEVKKPGATVKISCKVSGYTFTDYYLHWVQQAPGKGLEWMGWIDPENGDTEYAPKFQGRVTITADTSTDTAYMELSSLRSEDTAVYYCNANKELRYFDVWGQGTMVTVSS
VL: EIVMTQSPATLSVSPGERATLSCRASQSISINLHWYQQKPGQAPRLLIYFASQSISGIPARFSGSGSGTEFTLTISSLQSEDFAVYYCQQSNSFPLTFGGGTKVEIKR
Regarding B9, the binding result in the assay with human IL-23 [1] and with human IL-12 [2] was “binds” throughout.

B10: Antibody 81 (antibody, human IgG1, kappa, V domains shown)
VH: QVQLVQSGAEVKKPGASVKVSCKVSGYTLTDYYLHWVRQAPGKGLEWMGWIDPENGDTEYAPKFQGRVTMTEDTSTDTAYMELSSLRSEDTAVYYCATNKELRYFDVWGQGTMVTVSS
VL: EIVMTQSPATLSVSPGERATLSCRASQSISINLHWYQQKPGQAPRLLIYFASQSISGIPARFSGSGSGTEFTLTISSLQSEDFAVYYCQQSNSFPLTFGGGTKVEIKR
Regarding B10, the binding result with human IL-23 [1] and in the assay with human IL-12 [2] was “binds” in each case.

B11: Antibody 35 (antibody, human IgG1, kappa, V domains shown)
VH: QVQLVQSGAEVKKPGASVKVSCKVSGYTLTDYYMHWVRQAPGKGLEWMGWIDPENGDTEYAPKFQGRVTMTEDTSTDTAYMELSSLRSEDTAVYYCNACKELRYFDVWGQGTMVTVSS
VL: EIVMTQSPATLSVSPGERATLSCRASQSISINLHWYQQKPGQAPRLLIYFASQSISGIPARFSGSGSGTEFTLTISSLQSEDFAVYYCQQSNSWPLTFGGGTKVEIKR
Regarding B11, the binding result in the assay with human IL-23 [3] and with human IL-12 [4] was “binds” each time.
